Columns and labels:
[1] = Stability in rat plasma at room temperature for 30 min; type: in vitro ADME; conditions: for RE%: plasma sample, room temperature (25℃) for 30 min, n=6; for Measured concentration after storage, Mean ± SD / RE (%) versus nominal concentration: rat plasma, room temperature (25°C ± 1°C) for 30 min; for Measured concentration after storage, Mean ± SD: n = 6
Description: Processing of Plasma Samples: 100 μL of the unknown plasma sample was added to 500 μL of 75% methanol (methanol: water = 75:25, v/v) and vortex-mixed for 5 seconds. The mixture was then centrifuged at 12,000 r/min for 10 minutes at 25°C. The supernatant (500 μL) was collected and dried under nitrogen at 60°C. Subsequently, UFH (0.14 U·mL^-1 for PS and 0.15 U·mL^-1 for R15; 120 μL) was added, and the mixture was vigorously shaken at room temperature for 10 minutes. The residual UFH content was measured using the Heparin Anti-FXa assay kit.
The detailed procedure is as follows: Accurately pipette 40 μL of the sample into a 96-well plate. Place the plate in a microplate shaker. Using a multichannel pipette, add 40 μL of reagent R1 and mix by shaking. Incubate at 37 °C for exactly 3 minutes (start timing upon addition of R1; at 50 seconds, begin shaking with the microplate shaker for 1 minute, then place the plate in the incubator). Remove the 96-well plate from the incubator and place it on the open microplate shaker. Using a multichannel pipette, add 40 μL of reagent R2 to each well and incubate at 37 °C for 6 minutes (after adding R2, at 3 minutes and 50 seconds, open the microplate shaker and shake for 4 minutes, then return the plate to the incubator). Remove the 96-well plate from the incubator and place it on the open microplate shaker. Quickly add 40 μL of reagent R3 using a multichannel pipette and shake until 9 minutes and 10 seconds. At 9 minutes and 30 seconds, add 80 μL of 20% acetic acid to each well to terminate the reaction. Measure the absorbance at 405 nm using a microplate reader (Multiskan FC, Thermo Fisher US).
(§1) Two concentration levels (low and high QC) were evaluated for validation of storage stability and freeze/thaw stability. Two concentration levels of PS and R15 (low and high QC) in blank rat plasma were prepared (n = 6), respectively. Samples in rats’ plasma were determined after storage at room temperature (25°C ± 1°C) for 30 min. Samples in rats’ plasma were under three freeze (−80°C)-thaw (25°C) cycles. Stock solution of PS and R15 were stored at 4°C for a week. All the samples mentioned above were processed by calibration curves with adequate QC samples diluted from newly prepared stock solution of PS and R15, followed by procedure of sample determination (see “Sample Preparation”), respectively.

[2] = Stability of stock solution at 4°C for a week; type: physicochemical; conditions: for Measured concentration after storage, Mean ± SD: stock solution (10 mg·mL^-1 in deionized water) stored 1 week at 4°C, n = 6; for Mean determined concentration, stability of stock solution / RE%: stock solution for 1 week; for Mean determined concentration, stability of stock solution: mean of n=6; for RE%: n=6; for RE (%) versus nominal concentration: stock solution stored 1 week at 4°C
Description: Preparation of Stock Solutions: Appropriate amounts of PS and R15 powders were accurately weighed and dissolved in deionized water to obtain stock solutions at 10 mg·mL^-1, respectively. This solution was stored in a refrigerator at 4 °C and replaced regularly.
as §1

Substance: Protamine sulfate [PS]
- RE% ([1]; nominal 0.70 μg/mL): 8.10%
- RE% ([1]; nominal 1.50 μg/mL): 4.44%
- Measured concentration after storage, Mean ± SD ([1]; nominal 0.7 μg·mL^-1, anti-FXa read-out at 405 nm): 0.76 ± 0.01 µg/mL
- RE (%) versus nominal concentration ([1]; nominal 0.7 μg·mL^-1, n = 6): 8.10%
- Measured concentration after storage, Mean ± SD ([1]; nominal 1.5 μg·mL^-1, anti-FXa read-out at 405 nm): 1.57 ± 0.09 µg/mL
- RE (%) versus nominal concentration ([1]; nominal 1.5 μg·mL^-1, n = 6): 4.44%
- Measured concentration after storage, Mean ± SD ([2]; then diluted to nominal 0.7 μg·mL^-1, anti-FXa read-out): 0.59 ± 0.02 µg/mL
- Measured concentration after storage, Mean ± SD ([2]; then diluted to nominal 1.5 μg·mL^-1, anti-FXa read-out): 1.44 ± 0.04 µg/mL
- Mean determined concentration, stability of stock solution ([2]; nominal 0.7 μg/mL): 0.59 µg/mL
- RE% ([2]; nominal 0.7 μg/mL): -15.2%
- Mean determined concentration, stability of stock solution ([2]; nominal 1.5 μg/mL): 1.44 µg/mL
- RE% ([2]; nominal 1.5 μg/mL): -4.1%
- RE (%) versus nominal concentration ([2]; nominal 0.7 μg·mL^-1, n = 6): −15.2%
- RE (%) versus nominal concentration ([2]; nominal 1.5 μg·mL^-1, n = 6): −4.1%
